One block for each binder: values may come before it.
Experiments:
[1] = target: T1, recombinant human NKp46 expressed on the surface of CHO cells (human, UniProt O76036 22-304); experiment: flow cytometry, CHO-huNKp46 cells, apparent KD; SD 3.7
T1 construct: whole, on cells; also called huNKp46; CD355

[2] = target: T2, recombinant human CD16A (48R/158F) expressed on the surface of CHO cells (human, UniProt P08637 17-254); experiment: flow cytometry, CHO-huCD16A cells, apparent KD; SD n.a.
T2 construct: also called huCD16A; CD16A (158F)

[3] = target: T3, recombinant human CD64 expressed on the surface of CHO cells (human, UniProt P12314 16-374); experiment: flow cytometry, CHO-huCD64 cells, apparent KD; SD 6.6
T3 construct: whole, on cells; also called huCD64

[4] = target: T4, recombinant human CD32A expressed on the surface of CHO cells (human, UniProt P12318 34-317); experiment: flow cytometry, CHO-huCD32A cells, apparent KD; SD 64.3
T4 construct: whole, on cells; also called huCD32A
T4 sequence (looked up): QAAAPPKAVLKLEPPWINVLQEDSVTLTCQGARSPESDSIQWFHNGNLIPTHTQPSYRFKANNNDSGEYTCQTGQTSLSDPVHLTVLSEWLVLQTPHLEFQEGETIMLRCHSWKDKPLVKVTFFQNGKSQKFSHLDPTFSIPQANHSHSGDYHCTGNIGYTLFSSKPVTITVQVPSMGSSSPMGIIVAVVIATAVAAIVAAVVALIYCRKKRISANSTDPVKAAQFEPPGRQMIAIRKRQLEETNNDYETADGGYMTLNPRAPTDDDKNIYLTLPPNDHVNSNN

[5] = target: T3, recombinant human CD64 expressed on the …; experiment: flow cytometry, CHO-huCD64 cells, apparent KD; SD 5.8
[6] = target: T1, recombinant human NKp46 expressed on …; experiment: flow cytometry, CHO-huNKp46 cells, apparent KD; SD 1.9
[7] = target: T4, recombinant human CD32A expressed on …; experiment: flow cytometry, CHO-huCD32A cells, apparent KD; SD 2169.4
[8] = target: T4, recombinant human CD32A expressed on …; experiment: flow cytometry, CHO-huCD32A cells, apparent KD; SD n.a.
Description: (§1) The CHO cells were incubated with serial dilutions of the indicated trispecific constructs and control constructs at 37° C., and cell surface bound antibodies were detected by FITC-conjugated goat anti-human IgG Fc and flow cytometric analysis. Measured median fluorescence intensity values were used to calculate apparent affinities (KD) by non-linear regression.

[9] = target: T5, recombinant human NKG2D expressed on the surface of CHO cells (human, UniProt P26718 1-216); experiment: flow cytometry, CHO-huNKG2D cells, apparent KD; SD 16.2
T5 construct: whole, on cells; also called huNKG2D; CD314
T5 sequence (looked up): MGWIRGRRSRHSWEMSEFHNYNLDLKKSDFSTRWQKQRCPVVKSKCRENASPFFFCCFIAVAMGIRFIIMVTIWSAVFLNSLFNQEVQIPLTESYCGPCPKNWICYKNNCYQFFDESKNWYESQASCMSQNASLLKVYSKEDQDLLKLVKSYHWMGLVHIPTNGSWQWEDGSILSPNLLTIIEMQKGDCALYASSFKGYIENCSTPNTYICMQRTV
Description: as §1

[10] = target: T3, recombinant human CD64 expressed on the …; experiment: flow cytometry, CHO-huCD64 cells, apparent KD; SD 7.6
Description: as §1

[11] = target: T3, recombinant human CD64 expressed on the …; experiment: flow cytometry, CHO-huCD64 cells, apparent KD; SD 7.7
Description: as §1

[12] = target: T5, recombinant human NKG2D expressed on …; experiment: flow cytometry, CHO-huNKG2D cells, apparent KD; SD 6.8
Description: as §1

[13] = target: T3, recombinant human CD64 expressed on the …; experiment: flow cytometry, CHO-huCD64 cells, apparent KD; SD 3.4
Description: as §1

[14] = target: T4, recombinant human CD32A expressed on …; experiment: flow cytometry, CHO-huCD32A cells, apparent KD; SD 236.8
Description: as §1

[15] = target: T1, recombinant human NKp46 expressed on …; experiment: flow cytometry, CHO-huNKp46 cells, apparent KD; SD 2.8
Description: as §1

[16] = target: T3, recombinant human CD64 expressed on the …; experiment: flow cytometry, CHO-huCD64 cells, apparent KD; SD 2.7
Description: as §1

[17] = target: T4, recombinant human CD32A expressed on …; experiment: flow cytometry, CHO-huCD32A cells, apparent KD; SD 405.5
Description: as §1

T1 sequence (O76036 22-304): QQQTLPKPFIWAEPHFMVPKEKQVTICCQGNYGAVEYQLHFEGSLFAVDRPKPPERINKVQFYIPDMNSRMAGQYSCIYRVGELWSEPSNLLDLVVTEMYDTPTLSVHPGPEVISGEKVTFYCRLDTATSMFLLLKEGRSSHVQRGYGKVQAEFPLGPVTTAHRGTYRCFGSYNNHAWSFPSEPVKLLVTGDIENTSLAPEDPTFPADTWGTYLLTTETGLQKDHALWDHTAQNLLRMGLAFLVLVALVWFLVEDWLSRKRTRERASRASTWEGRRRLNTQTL
T3 sequence (P12314 16-374): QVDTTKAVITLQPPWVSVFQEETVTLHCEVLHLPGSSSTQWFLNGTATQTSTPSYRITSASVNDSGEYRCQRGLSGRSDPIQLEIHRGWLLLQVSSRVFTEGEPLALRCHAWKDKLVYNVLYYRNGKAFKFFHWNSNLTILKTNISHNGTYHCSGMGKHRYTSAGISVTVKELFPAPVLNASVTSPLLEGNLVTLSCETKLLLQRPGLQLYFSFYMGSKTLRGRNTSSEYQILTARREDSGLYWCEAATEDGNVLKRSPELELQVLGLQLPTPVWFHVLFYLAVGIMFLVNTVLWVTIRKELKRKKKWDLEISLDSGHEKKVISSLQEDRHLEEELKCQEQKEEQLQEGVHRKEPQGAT

Kd [1]: 9.8 nM | Kd [2]: 5190 nM | Kd [3]: 34.1 nM | Kd [4]: 374 nM
B1: scFv-IgAb-396 (bispecific antibody)
chain 1: not shown
chain 2: DIVMTQSPATLSLSPGERATLSCRSSKSLQNVNGNTYLYWFQQKPGQSPQLLIYRMSNLNSGVPDRFSGSGSGTEFTLTISSLEPEDFAVYYCMQHLEYPITFGAGTKLEIKRTVAAPSVFIFPPSDEQLKSGTASVVCLLNNFYPREAKVQWKVDNALQSGNSQESVTEQDSKDSTYSLSSTLTLSKADYEKHKVYACEVTHQGLSSPVTKSFNRGEC

Kd [5]: 42.3 nM | Kd [6]: 5.7 nM | Kd [7]: 5630 nM
B2: scFv-IgAb-395 (bispecific antibody)
chain 1: not shown
chain 2: B1 chain 2

Kd [8]: 2470 nM | Kd [9]: 28.5 nM | Kd [10]: 27.4 nM
B3: AIG-1scFv-5 (ComparatorB_1) (bispecific antibody, human IgG1, kappa)
heavy 1: not shown
light: B1 chain 2
heavy 2: not shown
notes: CD19, wt Fc, NKG2D(KYK-2.0)

Kd [11]: 22.8 nM | Kd [8]: 2530 nM | Kd [12]: 22.3 nM
B4: AIG-1scFv-6 (ComparatorB_2) (bispecific antibody, human IgG1, kappa)
heavy 1: not shown
light: B1 chain 2
heavy 2: not shown
notes: CD19, wt Fc, NKG2D(ADI-27743)

Kd [13]: 15.9 nM | Kd [14]: 1050 nM
B5: 1Fab-AFc-1Fab-5 (bispecific antibody, human IgG1, kappa)
chain 1: DIVMTQSPATLSLSPGERATLSCRSSKSLQNVNGNTYLYWFQQKPGQSPQLLIYRMSNLNSGVPDRFSGSGSGTEFTLTISSLEPEDFAVYYCMQHLEYPITFGAGTKLEIKRTVAAPSVFIFPPSDEQLKSGTASVVCLLNNFYPREAKVQWKVDNALQSGNSQESVTEQDSKDSTYSLSSTLTLSKADYEKHKVYACEVTHQGLSSPVTKSFNRGECDKTHTCPPCPAPELLGGPDVFLFPPKPKDTLMISRTPEVTCVVVDVSHEDPEVKFNWYVDGVEVHNAKTKPREEQYNSTYRVVSVLTVLHQDWLNGKEYKCKVSNKALPAPEEKTISKAKGQPREPQVYTLPPSREEMTKNQVSLWCLVKGFYPSDIAVEWESNGQPENNYKTTPPVLDSDGSFFLYSKLTVDKSRWQQGNVFSCSVMHEALHNHYTQKSLSLSPGK
chain 2: EVQLVESGGGLVKPGGSLKLSCAASGYTFTSYVMHWVRQAPGKGLEWIGYINPYNDGTKYNEKFQGRVTISSDKSISTAYMELSSLRSEDTAMYYCARGTYYYGTRVFDYWGQGTLVTVSSASTKGPSVFPLAPSSKSTSGGTAALGCLVKDYFPEPVTVSWNSGALTSGVHTFPAVLQSSGLYSLSSVVTVPSSSLGTQTYICNVNHKPSNTKVDKKVEPKSCDKTHTCPPCPAPELLGGPDVFLFPPKPKDTLMISRTPEVTCVVVDVSHEDPEVKFNWYVDGVEVHNAKTKPREEQYNSTYRVVSVLTVLHQDWLNGKEYKCKVSNKALPAPEEKTISKAKGQPREPQVYTLPPSREEMTKNQVSLSCAVKGFYPSDIAVEWESNGQPENNYKTTPPVLDSDGSFFLVSKLTVDKSRWQQGNVFSCSVMHEALHNHYTQKSLSLSPGSTGSQVQLQQSGPELVKPGASVKMSCKASGYTFTDYVINWGKQRSGQGLEWIGEIYPGSGTNYYNEKFKAKATLTADKSSNIAYMQLSSLTSEDSAVYFCARRGRYGLYAMDYWGQGTSVTVSSRTVAAPSVFIFPPSDEQLKSGTASVVCLLNNFYPREAKVQWKVDNALQSGNSQESVTEQDSKDSTYSLSSTLTLSKADYEKHKVYACEVTHQGLSSPVTKSFNRGEC
chain 3: DIQMTQTTSSLSASLGDRVTISCRASQDISNYLNWYQQKPDGTVKLLIYYTSRLHSGVPSRFSGSGSGTDYSLTINNLEQEDIATYFCQQGNTRPWTFGGGTKLEIKASTKGPSVFPLAPSSKSTSGGTAALGCLVKDYFPEPVTVSWNSGALTSGVHTFPAVLQSSGLYSLSSVVTVPSSSLGTQTYICNVNHKPSNTKVDKKVEPKSCDKTH
notes: CD19, Fc-enhanced Fc, NKp46(NKp46-1); also called ComparatorA_5

Kd [15]: 45.8 nM | Kd [16]: 12.6 nM | Kd [17]: 1010 nM
B6: 1Fab-AFc-1Fab-6 (bispecific antibody, human IgG1, kappa)
chain 1: B5 chain 1
chain 2: EVQLVESGGGLVKPGGSLKLSCAASGYTFTSYVMHWVRQAPGKGLEWIGYINPYNDGTKYNEKFQGRVTISSDKSISTAYMELSSLRSEDTAMYYCARGTYYYGTRVFDYWGQGTLVTVSSASTKGPSVFPLAPSSKSTSGGTAALGCLVKDYFPEPVTVSWNSGALTSGVHTFPAVLQSSGLYSLSSVVTVPSSSLGTQTYICNVNHKPSNTKVDKKVEPKSCDKTHTCPPCPAPELLGGPDVFLFPPKPKDTLMISRTPEVTCVVVDVSHEDPEVKFNWYVDGVEVHNAKTKPREEQYNSTYRVVSVLTVLHQDWLNGKEYKCKVSNKALPAPEEKTISKAKGQPREPQVYTLPPSREEMTKNQVSLSCAVKGFYPSDIAVEWESNGQPENNYKTTPPVLDSDGSFFLVSKLTVDKSRWQQGNVFSCSVMHEALHNHYTQKSLSLSPGSTGSEVQLQQSGPELVKPGASVKISCKTSGYTFTEYTMHWVKQSHGKSLEWIGGISPNIGGTSYNQKFKGKATLTVDKSSSTAYMELRSLTSEDSAVYYCARRGGSFDYWGQGTTLTVSSRTVAAPSVFIFPPSDEQLKSGTASVVCLLNNFYPREAKVQWKVDNALQSGNSQESVTEQDSKDSTYSLSSTLTLSKADYEKHKVYACEVTHQGLSSPVTKSFNRGEC
chain 3: DIVMTQSPATLSVTPGDRVSLSCRASQSISDYLHWYQQKSHESPRLLIKYASQSISGIPSRFSGSGSGSDFTLSINSVEPEDVGVYYCQNGHSFPLTFGAGTKLELKASTKGPSVFPLAPSSKSTSGGTAALGCLVKDYFPEPVTVSWNSGALTSGVHTFPAVLQSSGLYSLSSVVTVPSSSLGTQTYICNVNHKPSNTKVDKKVEPKSCDKTH
notes: CD19, Fc-enhanced Fc, NKp46(NKp46-3); also called ComparatorA_6

Reference: patent US20230365709A1 (published 2023)
